Drawing on patent US20210261605A1, this text covers Kd, koff and kon for 8 molecules.

Sequences and labels used below:
B1: FcR9_I (SEQ ID NO: 24), Fc-binding protein containing the amino acid substitution Val192Ile (receptor)
chain: KIEEAMGMRTEDLPKAEVILEPQWNRVLEKDSVTLKCRGAYSPEDNSTQWFHNESLISSQASSYLIDAATVDDSGEYRCQTSLSTLSDPVQLEVHIGWLLLQAPRWEFKEGDPIHLRCHSWKNTALHKVTYLQNGKGRKYFHHNSDFYIPKATLKDSGSYSCRGLIGSKNVSSETVNITITQGGHHHHHH
B2: FcR9_A (SEQ ID NO: 26), Fc-binding protein containing the amino acid substitution Val192Ala (receptor)
chain: KIEEAMGMRTEDLPKAEVILEPQWNRVLEKDSVTLKCRGAYSPEDNSTQWFHNESLISSQASSYLIDAATVDDSGEYRCQTSLSTLSDPVQLEVHIGWLLLQAPRWEFKEGDPIHLRCHSWKNTALHKVTYLQNGKGRKYFHHNSDFYIPKATLKDSGSYSCRGLAGSKNVSSETVNITITQGGHHHHHH
B3: Fc-binding protein FcR9 (SEQ ID NO: 20) (receptor)
chain: KIEEAMGMRTEDLPKAEVILEPQWNRVLEKDSVTLKCRGAYSPEDNSTQWFHNESLISSQASSYLIDAATVDDSGEYRCQTSLSTLSDPVQLEVHIGWLLLQAPRWEFKEGDPIHLRCHSWKNTALHKVTYLQNGKGRKYFHHNSDFYIPKATLKDSGSYSCRGLVGSKNVSSETVNITITQGGHHHHHH
B4: FcR9_F, Fc-binding protein having phenylalanine substituting for valine at position 192 of FcR9 (SEQ ID NO: 20) (receptor)
chain: KIEEAMGMRTEDLPKAEVILEPQWNRVLEKDSVTLKCRGAYSPEDNSTQWFHNESLISSQASSYLIDAATVDDSGEYRCQTSLSTLSDPVQLEVHIGWLLLQAPRWEFKEGDPIHLRCHSWKNTALHKVTYLQNGKGRKYFHHNSDFYIPKATLKDSGSYSCRGLFGSKNVSSETVNITITQGGHHHHHH
B5: FcR35d-containing Fc-binding protein (SEQ ID NO: 7) (receptor)
chain: KIEEAMGMRTGDMPKAEVILEPPWNRVLEQDSVTLKCRGAHSPDDDSTQWFHNERLIPSQASSFIIDSASVDDSGEYRCQTSLSTLSDPVQLEVHIGWLLLQAPRWEFVEGEPIHLRCHSWRNTALHKVMFLQNGKVRKYFHHNSDFVIPKATLEDSGSYSCRGLVGRKKVSSGAVDITVTQGGHHHHHH
B6: FcR36a-containing Fc-binding protein (SEQ ID NO: 11) (receptor)
chain: KIEEAMGMRTGDMPKAEVILEPPWNRVLEQDSVTLKCRGAHSPDDDSTQWFHNERLIPSQASSFIIDSASVDDSGEYRCQTSLSTLSDPVQLEVHIGWLLLQAPRWEFVEGEPIHLRCHSWRNTALHKVMFLQNGKVRKYFHHNSDFVIPKATLEDSGSYSCRGLAGRKKVSSGAVDITVTQGGHHHHHH
B7: FcR36i-containing Fc-binding protein (SEQ ID NO: 9) (receptor)
chain: KIEEAMGMRTGDMPKAEVILEPPWNRVLEQDSVTLKCRGAHSPDDDSTQWFHNERLIPSQASSFIIDSASVDDSGEYRCQTSLSTLSDPVQLEVHIGWLLLQAPRWEFVEGEPIHLRCHSWRNTALHKVMFLQNGKVRKYFHHNSDFVIPKATLEDSGSYSCRGLIGRKKVSSGAVDITVTQGGHHHHHH
B8: FcR35c-containing Fc-binding protein (SEQ ID NO: 5) (receptor)
chain: KIEEAMGMRTGDMPKAEVILEPPWNRVLEQDSVTLKCRGAHSPDDDSTQWFHNESLIPSQASSFIIDSASVEDSGEYRCQTSLSTLSEPVLLEVHIGWLLLQAPRWEFVEGEPIHLRCHSWRNTALHKVMFLQNGKVRKYFHHNSDFVIPKATLEDSGSYSCRGLVGRKNVSSEAVEITVTPGGHHHHHH

The target in this assay is IgG1 (product of Sigma-Aldrich). The assay can be described thus: SPR (Biacore T100), Fc-binding protein immobilized on CM5 chip, IgG1 in flow. For orientation: SPR reads the build-up and loss of mass on a sensor chip optically.
Take B1: the Kd amounted to 60 nM, the koff was 0.012 s⁻¹ and the kon was determined as 200000 M⁻¹ s⁻¹.

In turn, B2 gave a Kd of 36 nM, a koff of 0.0035 s⁻¹ and a kon of 100000 M⁻¹ s⁻¹.

The molecule B3 gave a Kd of 77 nM, a koff of 0.031 s⁻¹ and a kon of 410000 M⁻¹ s⁻¹.

Molecule B4 yielded a Kd of 3300 nM, a koff of 0.3 s⁻¹ and a kon of 90000 M⁻¹ s⁻¹.

Turning to B5, the Kd is 39 nM, the koff came out at 0.031 s⁻¹ and the association rate constant (kon) worked out at 810000 M⁻¹ s⁻¹.

B6 came in with a Kd of 95 nM, a koff of 0.13 s⁻¹ and a kon of 1.4e+06 M⁻¹ s⁻¹.

B7 yielded a Kd of 43 nM, a koff of 0.038 s⁻¹ and a kon of 900000 M⁻¹ s⁻¹.

For B8, the dissociation constant (Kd) is 40 nM, the koff amounted to 0.022 s⁻¹ and the kon is 540000 M⁻¹ s⁻¹.

In general, Kd refers to the constant that tells how readily two partners part at equilibrium. Usually koff stands for the rate constant with which the complex falls apart. By kon is commonly meant a measure of how fast the partners come together. A low value points to slower complex formation.
